Reference: patent publication US20070218504A1, “HUMAN LEPTIN-DERIVED POLYPEPTIDES AND USES THEREOF” (UNIVERSITY OF PITTSBURGH, priority 2006, published 2007)

Biological target: T1, human OB-Rb (Homo sapiens, UniProt P48357)
T1 construct: expressed in transfected cells
T1 sequence (P48357 22-1165): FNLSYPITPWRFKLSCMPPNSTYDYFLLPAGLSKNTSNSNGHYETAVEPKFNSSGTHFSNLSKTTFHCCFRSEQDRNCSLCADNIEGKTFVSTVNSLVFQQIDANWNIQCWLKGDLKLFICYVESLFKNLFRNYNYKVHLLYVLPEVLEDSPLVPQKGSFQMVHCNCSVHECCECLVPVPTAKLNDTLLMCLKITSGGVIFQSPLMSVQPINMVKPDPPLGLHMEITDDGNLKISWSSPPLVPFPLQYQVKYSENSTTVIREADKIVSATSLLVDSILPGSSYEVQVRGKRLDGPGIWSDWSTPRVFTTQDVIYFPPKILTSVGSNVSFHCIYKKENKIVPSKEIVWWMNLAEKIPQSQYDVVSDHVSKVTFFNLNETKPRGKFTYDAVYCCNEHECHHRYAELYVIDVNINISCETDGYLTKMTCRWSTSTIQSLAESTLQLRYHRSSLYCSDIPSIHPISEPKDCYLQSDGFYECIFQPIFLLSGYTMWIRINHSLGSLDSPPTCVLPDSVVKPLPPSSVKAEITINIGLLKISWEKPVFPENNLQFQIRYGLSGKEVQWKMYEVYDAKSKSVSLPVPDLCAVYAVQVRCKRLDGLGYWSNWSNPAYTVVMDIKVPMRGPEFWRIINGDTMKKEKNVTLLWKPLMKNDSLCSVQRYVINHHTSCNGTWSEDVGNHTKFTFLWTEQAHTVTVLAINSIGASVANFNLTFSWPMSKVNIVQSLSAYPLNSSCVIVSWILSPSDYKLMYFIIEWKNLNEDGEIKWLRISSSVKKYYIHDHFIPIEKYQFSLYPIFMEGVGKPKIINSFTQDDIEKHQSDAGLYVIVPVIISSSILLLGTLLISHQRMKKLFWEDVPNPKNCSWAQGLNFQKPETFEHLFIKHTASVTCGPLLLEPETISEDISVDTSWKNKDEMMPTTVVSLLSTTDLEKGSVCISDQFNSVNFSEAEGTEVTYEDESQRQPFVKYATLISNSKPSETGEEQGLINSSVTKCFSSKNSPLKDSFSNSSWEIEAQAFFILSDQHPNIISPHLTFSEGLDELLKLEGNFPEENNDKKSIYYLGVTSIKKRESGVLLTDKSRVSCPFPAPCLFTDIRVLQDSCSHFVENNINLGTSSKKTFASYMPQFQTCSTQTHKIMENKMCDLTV
Test: 125I-labeled mouse leptin pre-incubated with human CRP, binding to HEK293 cells stably transfected with human OB-Rb
Settings: in the presence of 2 ng/ml mouse leptin
Protocol: FIG. 4B. Effects of human CRP on mouse leptin. […] The dashed line at the bottom right of the graph indicates ^125I-leptin bound when two thousand fold excess of non-labeled mouse leptin is added.
To examine if CRP binding interferes with the stability of human leptin to bind to its receptors, a HEK293 cell line stably transfected with the long-form human leptin receptor, OB—Rb, was used (17). Human leptin was iodinated with Na^125I using the lodogen method. Briefly, 15 μg of recombinant human leptin in 100 mM Phosphate buffer pH 7.5 were incubated with 1 mCi of carrier-free Na^125I (2200 Ci/mmol) in a glass tube containing 50 μg Iodogen. After 10-minute incubation at room temperature, the reaction was stopped with 100 μl 0.1% trifluoroacetic acid (TFA). The reaction mixture was immediately purified by reverse-phase HPLC. The separation employed a 5-minute isocratic step at 20% eluant B in A, followed by two consecutive 30 min linear gradients from 20 to 50%, then from 50 to 60% eluant B in A (where eluant A is water containing 0.1% TFA and eluant B is acetonitrile containing 0.1% TFA) at a flow rate of 1.5 ml/min. The ^125I-labeled leptin (˜2 ng/ml) was pre-incubated with various concentrations of human CRP in 1 ml of μ-MEM for 1 hour before added to the OBR-expressing HEK293 cells. […]

IC50 of human CRP for reducing 125I-labeled mouse leptin binding to receptor: greater than 64 μg/ml
Substance: human CRP: human C-reactive protein, purified preparation from a commercial source
